Laboratory results: patent US20150218285A1 (TORAY INDUSTRIES, published 2015)
One block for each binder: values may come before it.

Key:
[1] = target: T1, polypeptide set forth in SEQ ID NO: 430 (human); test: ELISA on 93 synthetic CAPRIN-1 peptides, purified antibody 0.1 ug/mL
T1 peptide: ATQVPLVSSTSEGYTA
Protocol: Candidate peptides (93 peptides) each consisting of 12 to 16 amino acids of the amino acid sequence of the human CAPRIN-1 protein were synthesized and were each dissolved at a concentration of 1 mg/mL in DMSO. Each peptide was dissolved at a concentration of 30 μg/mL in a 0.1 M sodium carbonate buffer (pH 9.6). The solution was added to a 96-well plate (manufactured by Nunc, Product No. 436006) at 100 μL per well, followed by being left to stand at 4° C. overnight. The solution was removed, and 200 μL of 10 mM ethanolamine/0.1 M sodium carbonate buffer (pH 9.6) was added to each well, followed by being left to stand at room temperature for 1 hour. The solution was removed, and each well was washed with PBS containing 0.5% Tween 20 (PBST) twice to prepare a peptide-immobilized plate. For confirmation, this plate was also provided with a well to which the CAPRIN-1 protein was immobilized in accordance with the method described above. Rabbit anti-CAPRIN-1 monoclonal antibody #1 purified to a concentration of 0.1 ug/mL by a usual method was added to the plate at an amount of 50 μL per well, followed by shaking at room temperature for 1 hour. The solution was removed, and each well was washed with PBST three times. […] The absorbance was measured at 450 nm and 595 nm with an absorption spectrometer. […]

[2] = target: T1, polypeptide set forth in SEQ ID NO: 430; test: ELISA as in Example 13(1), purified antibody

binding result [1]: binds
B1: rabbit anti-CAPRIN-1 monoclonal antibody #1 (antibody, V domains shown)
VH: QSLEESGGDLVKPGASLTLTCTASGFSFSGSYYMSWVRQAPGKGLEWIAYIYIGDGVTAYANWAKGRFTISKASSTTVTLQMTSLTAADTATYFCARGNKLWGPGTLVTVSS
VL: DVVMTQTPASVEAAVGGTVTIKCQASQSISSYLAWYQQKPGQPPKRLIYDASNLDSGVPSRFKGSGSGTDFTITISDLECADAATYYCQCTAVSSATIYGNAFGGGTEVVVK
notes: rabbit hybridoma antibody

binding result [2]: binds
B2: human-rabbit chimeric anti-CAPRIN-1 antibody #1 (antibody, V domains shown)
VH: B1 VH
VL: B1 VL
notes: also called human-rabbit chimeric anti-CAPRIN-1 monoclonal antibody #1
